According to the nanobody polyreactivity screen of Harvey et al. (2022):

Test: yeast display, Sf9 membrane polyspecificity reagent, FACS + sequencing; frameworks hold sequencing errors
In short: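 Using colony PCR, genes from sorted yeast display clones were amplified, then sequenced on MiSeq at 2 × 250 and filtered by CDR length. The clones had been stained with 10% biotinylated, detergent-solubilized Sf9 membrane reagent for 1 hour at 4 °C and sorted by FACS into low and high (top ~1%) gates on anti-HA and streptavidin fluorescence. Polyreactivity labels come from the gate of origin.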

Row | Sequence | polyreactivity (PSR sort gate)
1 | QVQLVESGGGLVQAGGSLRLSCAASGSIFRDYAMGWYRQAPGKEMELVAAISSDGSTYYADSVKGRFTISRDNAKNTVYLQMNSLKPEDTAVYYCNAAHVAHRFIGYTRWNYYYWGQGTQVTVSS | high polyreactivity
2 | QVQLVESGGGLVQAGGSLRLSCAASGSIFRDYAMGWYRQAPGKERELVAAITWSGGRTYYADSVKGRFTISRDNAKNTVYLQMNSLKPEDTAVYYCAARSTRQYEYDYWGQGTQVTVSS | low polyreactivity
3 | QVQLVESGGGLVQAGGSLRLSCAASGSIFRFYAMGWYRQAPGKERELVAAITRRGGRTYYADSVKGRFTISRDNAKNTVYLQMNSLIPEDTAVYYCAAASKKPPSFEYNYWGQGTQLTVSS | high polyreactivity
4 | QVQLVESGGGLVQAGGSLRLSCAASGSIFRFYAMGWYRQAPGKERELVATISKRGGTTYYADSVKGRFTISRDNAKNTVYLQMNSLKPEDTAVYYCAVRLYLEMDYWGQGTPVTVSS | high polyreactivity
5 | QVQLVESGGGLVQAGGSLRLSCAASGSIFRFYAMGWYRQAPGTERELVAAISSSGSSTYYADSVKGRFTISRDNAMNTVYLQMNSLKPEDTAVYYCNARLGWSRAWSMDSWGQGTQVTVSS | high polyreactivity
6 | QVQLVESGGGLVQAGGSLRLSCAASGSIFRFYTMGWYRQAPGKERELVAAIRYRVTSTYYADSVKGRFTMSRDNAKNTVYLQMNSLTPEDTAVYYCAVRRAKRRSQGVSYASYAGNYNYWGLGTQVTVSS | high polyreactivity
7 | QVQLVESGGGLVQAGGSLRLSCAASGSIFRGKAMGWYRQAPGKERELVAAITRSGGRTYYADSVKGRFTISRDNAKNTVYLQMNSLKPDDTAVYYCAAEYYTGLGYWGQGTQVTVSS | high polyreactivity
8 | QVQLVESGGGLVQAGGSLRLSCAASGSIFRGNAMGWSRQAPAKERELVAAISKSGGSTYYADSVKGRFTISRDNAKNTVYLQMNSLKPEDTAVYYCAARTTYLYGMYYWGQGTQVTVSS | low polyreactivity
9 | QVQLVESGGGLVQAGGSLRLSCAASGSIFRGNAMGWYRQAPGKERELVASISYSGGSTYYADSVKGRFTISRDNAKNTVYLQMNSLKPEDTAVYYCAADESVAYPYSGYQYYRHIYDYWGQGTQVTVSS | low polyreactivity
10 | QVQLVESGGGLVQAGGSLRLSCAASGSIFRGNGMGWYTQAPGKERELVAAISRSGGRTYYADSVKGRFTISRDNAKNTVYLQMISLNPEDTAVYSCNAARSYQYDYWGQGTQVTVSS | high polyreactivity
11 | QVQLVESGGGLVQAGGSLRLSCAASGSIFRGYAMGWYRQAPGKERELVAAIRYSGARTYYADSVKGRFTISRDNAKNTVYLQMNSLKPEDTAVYYCNARYIRSYDYWGQGTQVTVSS | high polyreactivity
12 | QVQLVESGGGLVQAGGSLRLSCAASGSIFRGYAMGWYRQAPGKERELVAAITSRGGSTYYADSVKGRFTISRDIAKNTVYLQMNSLKPEDTAVYYCNKRVYYPWGQGTQVTVSS | high polyreactivity
13 | QVQLVESGGGLVQAGGSLRLSCAASGSIFRGYAMGWYRQAPGKERELVAAITSSGGSTNYADSVKGRFTISRDNAKNTVYLQMNSLKPEDTAVYYCNATSEEVAEYDYWGQGTQVTVSS | low polyreactivity
14 | QVQLVESGGGLVQAGGSLRLSCAASGSIFRGYAMGWYRQAPGKERELVASIRWRGGRTNYADSVKGRFTISRDNAKNTVYLQRNSLKPEDTAVYYCNADQQTIRSAKNDYWGQGTQVTVSS | low polyreactivity
15 | QVQLVESGGGLVQAGGSLRLSCAASGSIFRGYDMGWYRQAPGKERELVARISRGTGTHYADSVKGRFTISRDNAKNTVYLQMNSLKPEDTAVYYCAARYRYYPVTTRGYYWGQGTQVTVSS | high polyreactivity
16 | QVQLVESGGGLVQAGGSLRLSCAASGSIFRINAMGWYITAPGKERELVAAISWSGGSTYYADSVKGRFTISRDNAKNTVYLQMNSLKPEDTAVYYCAAVVSKSSFDYWGQGTQVTVSS | low polyreactivity
17 | QVQLVESGGGLVQAGGSLRLSCAASGSIFRINTMGWYLQAPGKERELVAAISFSGTRTYYADSVKGRFTISRDNAKNTVYLQMNSLKPEDTAVYYCAAAGRYTYRTLRDYWGQGTQVTVSS | high polyreactivity
18 | QVQLVESGGGLVQAGGSLRLSCAASGSIFRINVMGWYRQAPGKERELVAAITRGDSTNYADSVKGRFTISRDNAKNSVYLQMNSLKPEDTAVYYCAAGYYYYLRDHDYWGQGTQVTVSS | low polyreactivity
19 | QVQLVESGGGLVQAGGSLRLSCAASGSIFRIYAMGWYRQAPGKERELVAAISFSTGSRTYYADSVKGRFTISRDNAKNTVYLQMNSLKPEDTAVYYCNAESYYDYNYWGQGNQVTVSS | low polyreactivity
20 | QVQLVESGGGLVQAGGSLRLSCAASGSIFRIYAMGWYRQAPGKERELVAAISRGSTRTYYADSVKGRFTISRDNAKNTVYLQMNSLKPEDTAVYYCNKAYPPEYDYWGQGTQVTVSS | high polyreactivity
21 | QVQLVESGGGLVQAGGSLRLSCAASGSIFRIYRMGWYRQAPGKERELVAAISYSGGNTYYADSVKGRFTISRDNAKNTVYLQMNSLKPEDTAVYYCAAVPYRKHSYPFRLNYWGQGTQVTVSS | high polyreactivity

Row | Sequence | polyreactivity (PSR sort gate)
22 | QVQLVESGGGLVQAGGSLRLSCAASGSIFRKYAMGWYRQAPGKEREFVAVITTDGSTNYADSVKRRFTISRDNAKNTVYLQMNSLKPEDTAVYYCNAFRSSIGTDNDFWGQGTQVTVSS | low polyreactivity
23 | QVQLVESGGGLVQAGGSLRLSCAASGSIFRKYAMGWYRQAPGKERELVAVITTDGSTNYADSVKGRFTISRDNAKNTVNLQMNSLKPEDSAVYYCNAVRSSIGTDNDFWGQGTLVTVSS | low polyreactivity
24 | QVQLVESGGGLVQAGGSLRLSCAASGSIFRKYSMGWYRQAPGKERELVAGITGRGGRTYYADSVKGRFTISRDNAKNTVYLQMNSLKPDDTAVYYCAATVSPSYDYWGQGTQVTVSS | high polyreactivity
25 | QVQLVESGGGLVQAGGSLRLSCAASGSIFRLYAMGWYRQAPGKERELVAVISYSGGSTYYADSVKGRFTISRDNAKNTVYLQMNSLNPEDTAVYYCAARRRWYGIRNYYWGQGSQVTVSS | high polyreactivity
26 | QVQLVESGGGLVQAGGSLRLSCAASGSIFRNAMGWYRQAPGKERELVATISYRGGSTYYADSVKGRFTISRDNAKNTVYLQMNSLKPEDTAVYYCNADSKLVGYNYWGQGTQVTVSS | low polyreactivity
27 | QVQLVESGGGLVQAGGSLRLSCAASGSIFRNYAMGLYRQAPGKERELVAAISSRGGTTHYADSVKGRFTISRDNAKNTVYLQMNSLKPEDTAVYYCAADYYLATNPAPLAAGRGYWGQGTQVTVSS | high polyreactivity
28 | QVQLVESGGGLVQAGGSLRLSCAASGSIFRPKAMGWYRQAPGKERELVAAINTSDDSTYYADSVKGRFTISRDNAKNSVYLQMNSLKPEDTAVYYCAAEYYAYPYGDYYDYWGQGTQVSVSS | low polyreactivity
29 | QVQLVESGGGLVQAGGSLRLSCAASGSIFRPNAMGWYRQAPGTEREFVASISGRVGSTYYADSVKGRFTISRDNAKNTVYLQMNSLKPEDTAVYYCAADSRGGYKRNYWGQGTQVTVSS | high polyreactivity
30 | QVQLVESGGGLVQAGGSLRLSCAASGSIFRPYAMGWSRQAPGKERELVAAISWRSGRTYYADSVKGRFTISRDNAKNTVYLQMNSLKPEDTAVYYCAADLASYAYRYDYWGQGTQVTVSS | high polyreactivity
31 | QVQLVESGGGLVQAGGSLRLSCAASGSIFRPYAMGWYRPAPGKERELVAAITSGGRTNYADSVKGRFTISRDNAKNTVYLQMNSLKPEDTAVYYCAKTGSYAKIRPNNDYWGQGTQVTVSS | low polyreactivity
32 | QVQLVESGGGLVQAGGSLRLSCAASGSIFRPYAMGWYRQAPGKERELVAAISGSGGTTYYADSVKGRFTISRDNAKNTVYLQMNSLKTEETAVYYCAARNFSAFWLGGYDYWGQGTQVTVSS | low polyreactivity
33 | QVQLVESGGGLVQAGGSLRLSCAASGSIFRPYAMGWYRQAPGKERELVATITWSGGSTYYADSVKGRFTISRDNAKNTVYLQMNSLKPEDTAVYYCAADPDLLWEYSDGYYGGDGGYWGQGTQVTVSS | low polyreactivity
34 | QVQLVESGGGLVQAGGSLRLSCAASGSIFRPYTMGWYRQAPGKERELVAAITGSGGSTYYADSVKGRFTISRDNAKNTVYLQMNSLKPEDTAVYYCNAGWRVWGYSGSYYWFNYWGQGTQVTVSS | high polyreactivity
35 | QVQLVESGGGLVQAGGSLRLSCAASGSIFRQNAMGWYRQAPGKERELVAAISSSGGSTYYADSVKGRFTISRDNAKNTVYLQMNSLKPEDTAVYYCAARLRRTQTYSSGRPGDYWGQGTQVTVSS | high polyreactivity
36 | QVQLVESGGGLVQAGGSLRLSCAASGSIFRQYAMGWYRQAPGKERELVAAIRRGTSTYYADSVKGRFTISRDNAKNTVYLQMNSLKPEDTAVYYCAKHQHYPHYQPYWSRYDYWGQGTQVTVSS | low polyreactivity
37 | QVQLVESGGGLVQAGGSLRLSCAASGSIFRQYAMGWYRQAPGTERELVAAINYSGGNTYYADSVKGRFTISRDNAKNTVYLQMNSLKPEDTAVYYCAADSVRHYWWAYYYWGQGTQVTVSS | low polyreactivity
38 | QVQLVESGGGLVQAGGSLRLSCAASGSIFRRNAMGWYRQAPGKARELVATITSSGGSTYYADSVKGRFTISRDNAKNTVYLQMNSLKPEDTAVYDCATDGQSPYYIYYWGQGTQVTVSS | low polyreactivity
39 | QVQLVESGGGLVQAGGSLRLSCAASGSIFRRNAMGWYRQAPGKERELVAAISQSGGSTYYADSVKGRFTISRDNAKNTVYLQMNSLKPEDTAVYYCAAKHRVYGTRGYGYDYWGQGTQVTVSS | high polyreactivity
40 | QVQLVESGGGLVQAGGSLRLSCAASGSIFRRNAMGWYRQAPGKERELVAGISGGGSTYYADSVKGRFTISRDNAKNTVYLQMNSLKPEDTAVYYCSTDKHYRWAGFDYWGQGTQVTVSS | low polyreactivity
41 | QVQLVESGGGLVQAGGSLRLSCAASGSIFRRNAMGWYRQAPGKERELVATITSDGSTDYADSVKGRFTISRDNAKNTVYFQMNSLKPEDTAVYYCAVAYLWRPYDFREFDYWGQGTQVTVSS | low polyreactivity
